# T1: RAD51 WT protein phosphorylated in vitro by c-MET kinase (human)
# T1 chain: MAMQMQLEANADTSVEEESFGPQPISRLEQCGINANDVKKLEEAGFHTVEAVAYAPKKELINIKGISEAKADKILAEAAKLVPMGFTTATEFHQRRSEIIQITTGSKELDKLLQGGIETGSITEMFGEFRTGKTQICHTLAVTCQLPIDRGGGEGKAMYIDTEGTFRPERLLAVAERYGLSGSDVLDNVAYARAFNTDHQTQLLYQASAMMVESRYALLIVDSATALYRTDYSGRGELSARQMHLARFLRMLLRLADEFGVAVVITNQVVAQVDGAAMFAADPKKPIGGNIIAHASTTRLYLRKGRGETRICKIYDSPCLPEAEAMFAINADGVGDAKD
# Target: T1, RAD51 WT protein phosphorylated in …
# Test: cross-linking; RAD51 10 uM with ATP 2 mM, with or without kinase-active c-MET (0.1 uM) and PHA665752 (1 uM); 20 mM BS3, room temperature, 30 min, stopped with Tris 1 M pH 8.0; SDS-PAGE 10% and western blot with anti-RAD51
# Conditions: remark: other sources report otherwise
binder,measurement,value
"RAD51 WT protein phosphorylated in vitro by c-MET kinase (natural protein, here or on the partner: phosphotyrosine at Y159, Y191, Y205 and Y315 (sites the paper concludes for c-MET; extent at each site not stated); phosphotyrosine at Y159, Y191, Y205 and Y315 (sites the paper concludes for c-MET; extent at each site not stated)) MAMQMQLEANADTSVEEESFGPQPISRLEQCGINANDVKKLEEAGFHTVEAVAYAPKKELINIKGISEAKADKILAEAAKLVPMGFTTATEFHQRRSEIIQITTGSKELDKLLQGGIETGSITEMFGEFRTGKTQICHTLAVTCQLPIDRGGGEGKAMYIDTEGTFRPERLLAVAERYGLSGSDVLDNVAYARAFNTDHQTQLLYQASAMMVESRYALLIVDSATALYRTDYSGRGELSARQMHLARFLRMLLRLADEFGVAVVITNQVVAQVDGAAMFAADPKKPIGGNIIAHASTTRLYLRKGRGETRICKIYDSPCLPEAEAMFAINADGVGDAKD",fold of multimer forms against non-phosphorylated RAD51,1.6 fold

# Source: publication PMC6468871
